{"source": "patent US7901879B2", "about": "“Lactoferrin in the treatment of malignant neoplasms and other hyperproliferative diseases” (Agennix Incorporated, priority 2002, dated 2011)", "key": {"IL-18": {"tested_on": "IL-18", "assay": "IL-18 levels in small intestine and serum after oral rhLF or bLF (cytokine ELISA)", "format": "in vivo, mice", "details": "for IL-18 Intestinal Extract / IL-18 Serum: 24 h after last dose", "description": "Recombinant human lactoferrin and bovine lactoferrin were orally administered to mice, and the production of IL-18 in the small intestine was measured.\nMice were treated for three days daily with 65 mg/kg/day of rhLF, 300 mg/kg/day of rhLF or 300 mg/kg/day of bLF. For a control, mice were only administered the pharmaceutical carrier. Twenty-four hours following administration of the LF or control for 3 days, animals were weighed and blood and serum were collected. Serum was used for cytokine ELISA assays.\nAlso, at these time points, animals were sacrificed and the small intestinal tissue was removed for further analysis. Small intestinal epithelium was homogenized using a lysis buffer consisting of PBS, 1% Nonidet P-40, 0.5% sodium deoxycholate, and 0.1% sodium dodecyl sulphate containing 10 μg/ml PhenylMetheylsulfonyl fluoride. Homogenate was centrifuged at 15,000 rpm for 10 minutes and the supernatant stored at −80 C. till it was tested for IL-18 levels."}, "[1]": {"tested_on": "murine squamous carcinoma cell line (SCCVII)", "assay": "SCCVII floor-of-mouth tumor growth, oral rhLF and/or cisplatin (Example 6)", "format": "in vivo, immunocompetent C3H mice", "details": "rhLF alone 200 mg/kg oral once daily days 5-12", "description": "A murine squamous carcinoma cell line (SCCVII) was injected into the floor of the mouth through the neck skin of immunocompetent C3H mice (Day 0). […] Tumors were measured in three dimensions with calipers.\nTumor-bearing mice were randomized into a control group and seven groups receiving rhLF and/or cisplatin. RhLF (4 mg; 200 mg/Kg) was administered once daily by oral gavage for 8 days on days 5 through 12. Cisplatin was administered as a single dose of 5 mg/Kg given intraperitoneally either at the start of rhLF (day 5), in the middle (day 8) or at the end (day 12) of rhLF therapy. Animals were sacrificed on day 12 post-implantation and the residual tumor masses were measured and processed for later additional analyses."}, "[2]": {"tested_on": "O12 human oropharyngeal squamous cell carcinoma tumor cells", "assay": "Intratumoral rhLF in O12 tumors in nude mice (Example 17)", "format": "in vivo, athymic nude mice", "description": "O12 human oropharyngeal squamous cell carcinoma tumor cells were injected to the right flank of athymic nude mice. Recombinant human lactoferrin and vehicle controls were dosed via intratumoral injection. Each animal was administered different concentrations of rhLF in 50 μL doses consisting of four separate injections of approximately 12.5 μL of the dose, at different directions and angles (approximately S/N/E/W) to ensure that the dose was distributed evenly throughout the tumor (fanning).\nIn this study, rhLF was administered directly into the tumor. Each animal was tracked daily for tumor growth by external caliper measurements of the protruding tumor."}, "[3]": {"tested_on": "murine squamous carcinoma cell line (SCCVII)", "assay": "SCCVII tumor growth, oral rhLF and/or radiotherapy (Example 9)", "format": "in vivo, immunocompetent C3H mice", "description": "A murine squamous carcinoma cell line (SCCVII) was injected into the floor of mouth through the neck skin of immunocompetent C3H mice (Day 0). […] Tumors were measured in three dimensions with calipers.\nTumor-bearing mice were randomized into six groups receiving rhLF (200 mg/Kg) and/or radiotherapy as described below. RhLF (4 mg; 200 mg/kg) was administered by oral gavage once daily for 8 days on days 5 through 12. Radiotherapy was administered as single dose of 2 Gray given at the beginning (day 5) or at during (day 8) rhLF-therapy. Animals were sacrificed on day 14 post-treatment and the residual tumor masses were measured and processed for later additional analyses."}, "[4]": {"tested_on": "Human squamous cell carcinoma (O12)", "assay": "Tumor growth inhibition by rhLF in O12 tumor model in mice (Example 1)", "format": "in vivo, athymic nude mice", "description": "Human squamous cell carcinoma (O12) was used. The cells were injected into the right flank of athymic nude mice. rhLF was administered either intratumorally (49 animals, 7 doses ranging from 0.05 μg to 125 μg per dose), intravenously (7 animals, 125 ug/dose) or orally (7 animals 20 mg/dose). Control animals were treated with only the vehicle; no rhLF was administered to the control animals. rhLF was administered twice a day for either five days (intravenous group) or eight days (all other groups) starting 11 days after inoculation with tumor cells to allow formation of established tumors.\nThe efficacy of treatment was evaluated by measuring the solid tumor size during and at the end of the experiment; the body weights were also determined at the time of tumor measurements."}, "metastatic cancer": {"tested_on": "metastatic cancer", "assay": "Oral rhLF in human patients with metastatic cancer, tumor size by CT", "format": "in vivo", "description": "Recombinant human lactoferrin was orally administered to human patients with a range of metastatic cancer types that had failed standard chemotherapy in two different studies conducted in multiple centers in four countries (Argentina, Brazil, Chile, U.S.) RhLF was administered at doses of 1.5 to 9 grams daily in two divided doses in cycles of 14 each with a 14 day gap.\nTumor size progression was monitored through CT scans and tumor markers where available. CT scans were performed at baseline and after each 8-week period once treatment was initiated, and also compared with a pre-baseline scan conducted prior to enrollment in the study. Tumor markers are measured every 4 weeks. Blood samples were collected to measure subclasses of circulating lymphocytes and NK cell activity. Plasma, serum and blood cell extract samples were collected to measure circulating IL-18, IL-1, IL-2, and IL-4, IL-5, IL-10, IL-12 and IFN-γ."}, "[5]": {"details": "oral 65 mg/kg rhLF versus 300 mg/kg bLF"}, "[6]": {"details": "oral 65 mg/kg/day for three days"}, "[7]": {"details": "oral 300 mg/kg rhLF versus 300 mg/kg bLF"}, "[8]": {"details": "oral 300 mg/kg/day for three days"}, "[9]": {"details": "oral, rhLF at both doses, bLF 300 mg/kg/day"}}, "data": [{"molecule": "Recombinant human lactoferrin (protein, UniProt P02788 20-710, looked up, human lactoferrin produced recombinantly) Lactotransferrin: GRRRSVQWCAVSQPEATKCFQWQRNMRKVRGPPVSCIKRDSPIQCIQAIAENRADAVTLDGGFIYEAGLAPYKLRPVAAEVYGTERQPRTHYYAVAVVKKGGSFQLNELQGLKSCHTGLRRTAGWNVPIGTLRPFLNWTGPPEPIEAAVARFFSASCVPGADKGQFPNLCRLCAGTGENKCAFSSQEPYFSYSGAFKCLRDGAGDVAFIRESTVFEDLSDEAERDEYELLCPDNTRKPVDKFKDCHLARVPSHAVVARSVNGKEDAIWNLLRQAQEKFGKDKSPKFQLFGSPSGQKDLLFKDSAIGFSRVPPRIDSGLYLGSGYFTAIQNLRKSEEEVAARRARVVWCAVGEQELRKCNQWSGLSEGSVTCSSASTTEDCIALVLKGEADAMSLDGGYVYTAGKCGLVPVLAENYKSQQSSDPDPNCVDRPVEGYLAVAVVRRSDTSLTWNSVKGKKSCHTAVDRTAGWNIPMGLLFNQTGSCKFDEYFSQSCAPGSDPRSNLCALCIGDEQGENKCVPNSNERYYGYTGAFRCLAENAGDVAFVKDVTVLQNTDGNNNEAWAKDLKLADFALLCLDGKRKPVTEARSCHLAMAPNHAVVSRMDKVERLKQVLLHQQAKFGRNGSDCPDKFCLFQSETKNLLFNDNTECLARLHGKTTYEKYLGPQYVAGITNLKKCSTSPLLEACEFLRK", "values": [{"measurement": "IL-18 Intestinal Extract % Increase Over Control", "setting": "IL-18; oral 65 mg/kg", "value": 725, "unit": "%"}, {"measurement": "IL-18 Serum % Increase Over Control", "setting": "IL-18; oral 65 mg/kg", "value": 84, "unit": "%"}, {"measurement": "IL-18 Intestinal Extract % Increase Over Blf", "setting": "IL-18; [5]", "value": 75, "unit": "%"}, {"measurement": "IL-18 Serum % Increase Over Blf", "setting": "IL-18; [5]", "value": 94, "unit": "%"}, {"measurement": "IL-18 Intestinal Extract", "setting": "IL-18; [6]", "value": "7,879 pg"}, {"measurement": "IL-18 Serum", "setting": "IL-18; [6]", "value": 259, "unit": "pg"}, {"measurement": "IL-18 Intestinal Extract % Increase Over Control", "setting": "IL-18; oral 300 mg/kg", "value": 775, "unit": "%"}, {"measurement": "IL-18 Serum % Increase Over Control", "setting": "IL-18; oral 300 mg/kg", "value": 132, "unit": "%"}, {"measurement": "IL-18 Intestinal Extract % Increase Over Blf", "setting": "IL-18; [7]", "value": 85, "unit": "%"}, {"measurement": "IL-18 Serum % Increase Over Blf", "setting": "IL-18; [7]", "value": 145, "unit": "%"}, {"measurement": "IL-18 Intestinal Extract", "setting": "IL-18; [8]", "value": "8,350 pg"}, {"measurement": "IL-18 Serum", "setting": "IL-18; [8]", "value": 328, "unit": "pg"}, {"measurement": "effect on amount of IL-18 in the intestinal extract", "setting": "IL-18; [9]", "value": "significantly enhanced"}, {"measurement": "effect on amount of IL-18 in the serum", "setting": "IL-18; [9]", "value": "significantly enhanced"}, {"measurement": "TGI (%) Relative to Placebo", "setting": "[1]", "value": 33, "unit": "%"}, {"measurement": "reduction of rates of tumor growth versus pooled placebo", "setting": "[2]; Group A, single intratumoral dose, day 11 after administration, p<0.05", "value": 50, "unit": "%"}, {"measurement": "reduction of rates of tumor growth versus pooled control group", "setting": "[2]; Group C, intratumoral twice daily for 8 days, p<0.01", "value": 56, "unit": "%"}, {"measurement": "Inhibition Relative to Placebo", "setting": "[3]; both rhLF/Rad groups pooled (D/F)", "value": 67, "unit": "%"}, {"measurement": "Inhibition Relative to Placebo", "setting": "[3]; rhLF 200 mg/kg oral days 5-12 plus radiation 2 Gray on day 5", "value": 68, "unit": "%"}, {"measurement": "Inhibition Relative to Placebo", "setting": "[3]; rhLF 200 mg/kg oral days 5-12 plus radiation 2 Gray on day 8", "value": 66, "unit": "%"}, {"measurement": "Inhibition Relative to Placebo", "setting": "[3]; rhLF alone 200 mg/kg oral once daily days 5-12", "value": 54, "unit": "%"}, {"measurement": "increase in TGI over monotherapy with rhLF", "setting": "[3]; rhLF plus radiation, P<0.05", "value": 28, "unit": "%"}, {"measurement": "increase in TGI over monotherapy with radiation", "setting": "[3]; rhLF plus radiation, P=0.1207", "value": 15, "unit": "%"}, {"measurement": "Inhibition Relative to Placebo", "setting": "[4]; intratumoral, twice a day for eight days, 0.05 μg to 125 μg per dose, Day 19", "value": 28, "unit": "%"}, {"measurement": "Inhibition Relative to Placebo", "setting": "[4]; intratumoral, twice a day for eight days, 0.05 μg to 125 μg per dose, Day 28", "value": 46, "unit": "%"}, {"measurement": "Inhibition Relative to Placebo", "setting": "[4]; intravenous 125 ug/dose twice a day for five days, Day 19", "value": 55, "unit": "%"}, {"measurement": "Inhibition Relative to Placebo", "setting": "[4]; intravenous 125 ug/dose twice a day for five days, Day 28", "value": 65, "unit": "%"}, {"measurement": "Inhibition Relative to Placebo", "setting": "[4]; oral 20 mg/dose twice a day for eight days, Day 19", "value": 76, "unit": "%"}, {"measurement": "Inhibition Relative to Placebo", "setting": "[4]; oral 20 mg/dose twice a day for eight days, Day 28", "value": 80, "unit": "%"}, {"measurement": "Post Treatment 1 % Growth", "setting": "metastatic cancer; Patient # 007, Lung, 7.5 weeks, pretreatment 160% (5.5 weeks)", "value": "13% (7.5)"}, {"measurement": "Post Treatment 2 % Growth", "setting": "metastatic cancer; Patient # 007, Lung, 8.5 weeks", "value": "12% (8.5)"}, {"measurement": "Post Treatment 2 % Growth", "setting": "metastatic cancer; Patient # 102, Ovarian, 8.5 weeks", "value": "−7% (8.5)"}, {"measurement": "Post Treatment 1 % Growth", "setting": "metastatic cancer; Patient # 102, Ovarian, 10.5 weeks, pretreatment 30% (21 weeks)", "value": "−5% (10.5)"}, {"measurement": "Post Treatment 2 % Growth", "setting": "metastatic cancer; Patient # 104, Gastric, 7 weeks", "value": "−5% (7)"}, {"measurement": "Post Treatment 1 % Growth", "setting": "metastatic cancer; Patient # 104, Gastric, 10 weeks, pretreatment 25% (5.5 weeks)", "value": "10% (10)"}, {"measurement": "Post Treatment 1 % Growth", "setting": "metastatic cancer; Patient # 106, Melanoma, 11 weeks, pretreatment 24% (19 weeks)", "value": "−18% (11)"}, {"measurement": "Post Treatment 2 % Growth", "setting": "metastatic cancer; Patient # 204, Breast, 6.5 weeks", "value": "0% (6.5)"}, {"measurement": "Post Treatment 1 % Growth", "setting": "metastatic cancer; Patient # 204, Breast, 10 weeks, pretreatment 40% (8 weeks)", "value": "0% (10)"}, {"measurement": "patients with stable disease by the RECIST criteria at the first post-treatment scan", "setting": "metastatic cancer; nine of nineteen evaluable patients, oral 1.5 to 9 grams daily", "value": 47, "unit": "%"}]}]}
